The results in this text go back to patent US20200102387A1.

The target in assay [1] is FcγR2A (CD32aR131) (human) (UniProt P12318). As to the kind of experiment: cell binding, FcγR-engineered HEK293 cells.
The target in assay [2] is FcγR2A (CD32aH131) (human) (UniProt P12318). The experiment in a line: cell binding, FcγR-engineered HEK293 cells.
A further assay addresses FcγR1 (CD64) (human) (UniProt P12314). The experiment in a line: cell binding, FcγR-engineered HEK293 cells.
In assay [3] the target is FcγR2B (human) (UniProt P31994). As to the kind of experiment: cell binding, FcγR-engineered HEK293 cells.
Assay [4] addresses FcγR3A (CD16aV158) (human) (UniProt P08637). As to the kind of experiment: cell binding, FcγR-engineered HEK293 cells.
Assay [5] has as its target FcγR2B (human) (UniProt P31994). As to the kind of experiment: cell binding, FcγR-engineered HEK293 cells. The source holds these as a separate data set.
The target of assay [6] is FcγR3A (CD16aF158) (human) (UniProt P08637). The experiment in a line: cell binding, FcγR-engineered HEK293 cells.
The target in assay [7] is FcγR3A (CD16aV158) (human) (UniProt P08637). The experiment in a line: cell binding, FcγR-engineered HEK293 cells. The source holds these as a separate data set.
Assay [8] deals with mouse SIRPα on cells (mouse) (UniProt P97797). As to the kind of experiment: flow cytometry on Mouse SIRPα-CHO-K1 cells.
Assay [9] deals with rat SIRPα on CHO-K1 cells (rat) (UniProt P97710). As to the kind of experiment: flow cytometry on Rat SIRPα-CHO-K1 cells.

Where two headings read alike, the source gives them in different places.

Sequence of FcγR2A (CD32aH131) (human) (P12318 34-317): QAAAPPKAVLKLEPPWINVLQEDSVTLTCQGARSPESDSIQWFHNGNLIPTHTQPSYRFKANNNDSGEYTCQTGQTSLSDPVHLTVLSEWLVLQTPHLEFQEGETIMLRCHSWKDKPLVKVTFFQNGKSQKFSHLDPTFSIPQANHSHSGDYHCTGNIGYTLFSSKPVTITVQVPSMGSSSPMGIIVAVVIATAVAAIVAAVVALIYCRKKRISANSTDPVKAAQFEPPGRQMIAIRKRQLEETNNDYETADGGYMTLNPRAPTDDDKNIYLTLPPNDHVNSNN
Sequence of FcγR2B (human) (P31994 43-310): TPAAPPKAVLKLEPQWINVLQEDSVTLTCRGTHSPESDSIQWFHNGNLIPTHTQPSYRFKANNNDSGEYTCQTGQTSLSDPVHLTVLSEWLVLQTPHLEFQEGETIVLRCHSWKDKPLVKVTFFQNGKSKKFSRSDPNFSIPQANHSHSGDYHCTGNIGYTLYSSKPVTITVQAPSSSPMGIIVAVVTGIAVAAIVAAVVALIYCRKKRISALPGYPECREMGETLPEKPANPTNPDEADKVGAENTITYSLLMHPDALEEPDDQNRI
Sequence of FcγR3A (CD16aV158) (human) (P08637 17-254 F176V): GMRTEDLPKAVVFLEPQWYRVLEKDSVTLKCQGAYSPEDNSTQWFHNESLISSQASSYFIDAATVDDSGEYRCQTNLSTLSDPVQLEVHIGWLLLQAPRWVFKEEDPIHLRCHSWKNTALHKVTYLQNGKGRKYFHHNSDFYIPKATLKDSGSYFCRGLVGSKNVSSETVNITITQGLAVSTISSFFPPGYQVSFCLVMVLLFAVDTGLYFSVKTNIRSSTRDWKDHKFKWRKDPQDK
Sequence of FcγR1 (CD64) (human) (P12314 16-374): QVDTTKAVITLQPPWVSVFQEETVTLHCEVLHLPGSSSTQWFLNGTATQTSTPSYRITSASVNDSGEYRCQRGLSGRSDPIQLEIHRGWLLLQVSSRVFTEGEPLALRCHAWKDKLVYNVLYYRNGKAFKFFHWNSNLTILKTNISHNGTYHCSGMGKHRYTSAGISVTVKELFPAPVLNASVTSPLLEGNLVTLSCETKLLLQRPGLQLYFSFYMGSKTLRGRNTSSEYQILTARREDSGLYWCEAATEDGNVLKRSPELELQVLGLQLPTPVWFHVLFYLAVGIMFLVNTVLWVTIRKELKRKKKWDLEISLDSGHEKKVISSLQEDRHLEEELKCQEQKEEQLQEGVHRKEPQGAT
Sequence of FcγR2A (CD32aR131) (human) (P12318 34-317 H167R): as the sequence (P12318 34-317) above, with H134R counted along it
Sequence of rat SIRPα on CHO-K1 cells (rat) (P97710 32-509): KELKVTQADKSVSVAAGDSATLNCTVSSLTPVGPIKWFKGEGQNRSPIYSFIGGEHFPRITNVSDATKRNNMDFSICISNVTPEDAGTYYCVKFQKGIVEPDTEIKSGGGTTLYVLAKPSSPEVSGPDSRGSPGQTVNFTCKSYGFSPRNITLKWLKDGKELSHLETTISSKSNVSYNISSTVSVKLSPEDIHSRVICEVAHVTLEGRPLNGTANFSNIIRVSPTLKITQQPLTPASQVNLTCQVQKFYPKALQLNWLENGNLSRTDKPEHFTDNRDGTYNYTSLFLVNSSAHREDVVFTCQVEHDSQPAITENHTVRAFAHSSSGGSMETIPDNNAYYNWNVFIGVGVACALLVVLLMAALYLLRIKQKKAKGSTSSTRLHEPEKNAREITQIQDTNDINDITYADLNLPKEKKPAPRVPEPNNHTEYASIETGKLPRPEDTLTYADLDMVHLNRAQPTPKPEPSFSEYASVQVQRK
Sequence of mouse SIRPα on cells (mouse) (P97797 32-513): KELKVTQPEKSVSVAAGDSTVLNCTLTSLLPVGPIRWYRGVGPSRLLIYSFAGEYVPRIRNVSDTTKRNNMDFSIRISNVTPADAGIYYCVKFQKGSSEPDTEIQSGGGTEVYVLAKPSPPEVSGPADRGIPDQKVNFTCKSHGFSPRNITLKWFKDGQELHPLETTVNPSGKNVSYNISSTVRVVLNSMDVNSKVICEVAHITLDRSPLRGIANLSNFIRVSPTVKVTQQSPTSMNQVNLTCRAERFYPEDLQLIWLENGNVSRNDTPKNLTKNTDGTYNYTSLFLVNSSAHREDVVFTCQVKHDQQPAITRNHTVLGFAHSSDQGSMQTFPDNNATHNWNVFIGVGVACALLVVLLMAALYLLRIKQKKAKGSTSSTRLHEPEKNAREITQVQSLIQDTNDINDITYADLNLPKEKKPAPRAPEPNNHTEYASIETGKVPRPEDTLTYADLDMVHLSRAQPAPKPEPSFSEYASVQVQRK
Sequence of FcγR3A (CD16aF158) (human) (P08637 17-254): as the sequence (P08637 17-254 F176V) above, with V160F counted along it

Take Commercially Available IgG1 (antibody): the results for the EC50 (in assay [1]; in [2]; in the assay with FcγR1 (CD64) (human)) were 0.188 µM, 0.361 µM and 0.00083 µM, respectively.
On to Isotype Control-IgG1 (antibody), for which the EC50 with FcγR2B (human) [3] stood at 2.25 µM; in assay [4], 0.127 µM; in [1], 0.0902 µM; in assay [2] it was 0.137 µM; in the assay with FcγR2B (human) [5], 1.2 µM; in assay [6] it was 0.311 µM. Further, the EC50 in assay [7] was 0.449 µM; with FcγR1 (CD64) (human), 0.00118 µM.
In turn, anti-mouse-SIRPα antibody P84 showed an EC50 (read off the curve) in [8] of 0.002 µM.
As to anti-rat-SIRPα antibody OX-41, the concentration giving a half-maximal response (EC50 (read off the curve)) in assay [9] stood at 0.002 µM. That is a single-digit nanomolar value.
